Experimental findings from the supplement of paper PMC10567573 are described below.

To fix the notation:
B1: ZNF511 (parent)
chain: HLYPADFRFDKPKKSRSPASAEAP
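Also: lentivirally expressed fusions sorted by FACS into six bins by GFP to DsRed ratio, PSI derived from sequencing read proportions per bin multiplied by bin number.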

Variants of B1 are the subject of this series. Briefly: protein stability index of a GFP-peptide fusion (GPS, HEK-293T) (PSI 1-6); higher = more stable. The following applies: c terminus: a fixed tail appended.
Take HLYPADFRFDKPKKSRSLASAEAP: the protein stability index turned out to be 2.73. Turning to HLYPADFRFDKPKKSRSTASAEAP, the protein stability index stood at 3.52. As for HLYPADFRFDKPKKSRSVASAEAP, the protein stability index stood at 2.33. For HLYPADFRFDKPKKSRSQASAEAP, the protein stability index was determined as 2.56.

For HLYPADFRFDKPKKSRSMASAEAP, the protein stability index was found to be 2.78.

For HLYPADFRFDKPKKSRSWASAEAP, the protein stability index was 2.51.

For HLYPADFRFDKPKKSRSCASAEAP, the protein stability index is 2.97. Under HLYPADFRFDKPKKSRSHASAEAP stands 2.74; under HLYPADFRFDKPKKSRSGASAEAP, 2.58; under HLYPADFRFDKPKKSRSEASAEAP, 2.74. Under HLYPADFRFDKPKKSRSSASAEAP stands 2.97; under HLYPADFRFDKPKKSRSIASAEAP, 2.96; under HLYPADFRFDKPKKSRSDASAEAP, 3.09. On to HLYPADFRFDKPKKSRSAASAEAP, for which the protein stability index was determined as 2.22. On to HLYPADFRFDKPKKSRSRASAEAP, for which the protein stability index came out at 2.79. On to HLYPADFRFDKPKKSRSYASAEAP, for which the protein stability index is 2.34.

Take HLYPADFRFDKPKKSRSFASAEAP: the protein stability index stood at 2.3. Under HLYPADFRFDKPKKSRSNASAEAP stands 2.34; under HLYPADFRFDKPKKSRSKASAEAP, 3.08. With HLYPADFRFDKPKKSRSPASAFAP, the protein stability index is 2.52.

Take HLYPADFRFDKPKKSRSPASAHAP: the protein stability index is 2.63. Consider HLYPADFRFDKPKKSRSPASAGAP, for which the protein stability index is 3.13.

On to HLYPADFRFDKPKKSRSPASAPAP, for which the protein stability index was determined as 2.91. With HLYPADFRFDKPKKSRSPASACAP, the protein stability index was determined as 2.67.

With HLYPADFRFDKPKKSRSPASAIAP, the protein stability index was found to be 2.93.

Turning to HLYPADFRFDKPKKSRSPASAAAP, the protein stability index was 2.7. As for HLYPADFRFDKPKKSRSPASADAP, the protein stability index was 2.99.

In the case of HLYPADFRFDKPKKSRSPASALAP, the protein stability index was determined as 2.58. As to HLYPADFRFDKPKKSRSPASAMAP, the protein stability index came out at 2.19. The figure for HLYPADFRFDKPKKSRSPASANAP is 2.9; for HLYPADFRFDKPKKSRSPASAQAP it is 2.61. HLYPADFRFDKPKKSRSPASAKAP: the protein stability index amounted to 2.69. HLYPADFRFDKPKKSRIPASAEAP: the protein stability index turned out to be 2.03. The figure for HLYPADFRFDKPKKSRDPASAEAP is 3.28; for HLYPADFRFDKPKKSRAPASAEAP it is 2.61; for HLYPADFRFDKPKKSRCPASAEAP it is 2.9.

Regarding HLYPADFRFDKPKKSRGPASAEAP, the protein stability index stood at 2.63.

Turning to HLYPADFRFDKPKKSRTPASAEAP, the protein stability index worked out at 2.97.

Regarding HLYPADFRFDKPKKSRQPASAEAP, the protein stability index worked out at 3. For the variant HLYPADFRFDKPKKSRWPASAEAP, the protein stability index came out at 2.27. With HLYPADFRFDKPKKSRNPASAEAP, the protein stability index came out at 3.16.

With HLYPADFRFDKPKKSRPPASAEAP, the protein stability index came to 2.83. Under HLYPADFRFDKPKKSRRPASAEAP stands 3.29; under HLYPADFRFDKPKKSREPASAEAP, 3.18. The figure for HLYPADFRFDKPKKSRVPASAEAP is 2.28; for HLYPADFRFDKPKKSRKPASAEAP it is 3.01; for HLYPADFRFDKPKKSRHPASAEAP it is 2.86. For HLYPADFRFDKPKKSRMPASAEAP, the protein stability index was 2.77. Consider HLYPADFRFDKPKKSRYPASAEAP, for which the protein stability index was 2.29.

In the case of HLYPADFRFDKPKKSRFPASAEAP, the protein stability index was 2.7. For HLYPADFRFDKPKKSRLPASAEAP, the protein stability index is 2.9. As to HLYPADFRFDKPKKSRSPDSAEAP, the protein stability index turned out to be 3.36. Turning to HLYPADFRFDKPKKSRSPWSAEAP, the protein stability index stood at 2.

With HLYPADFRFDKPKKSRSPNSAEAP, the protein stability index worked out at 2.56.

Turning to HLYPADFRFDKPKKSRSPYSAEAP, the protein stability index came out at 2.69. For HLYPADFRFDKPKKSRSPISAEAP, the protein stability index came to 2.74. For HLYPADFRFDKPKKSRSPLSAEAP, the protein stability index was 2.88.

Take HLYPADFRFDKPKKSRSPRSAEAP: the protein stability index was determined as 2.81. Regarding HLYPADFRFDKPKKSRSPESAEAP, the protein stability index worked out at 2.97. For HLYPADFRFDKPKKSRSPPSAEAP, the protein stability index is 3.18. For the variant HLYPADFRFDKPKKSRSPCSAEAP, the protein stability index came out at 2.63. With HLYPADFRFDKPKKSRSPTSAEAP, the protein stability index amounted to 3.29. With HLYPADFRFDKPKKSRSPGSAEAP, the protein stability index amounted to 3.02.

On to HLYPADFRFDKPKKSRSPKSAEAP, for which the protein stability index stood at 3.54. The figure for HLYPADFRFDKPKKSRSPHSAEAP is 2.68; for HLYPADFRFDKPKKSRSPMSAEAP it is 2.7; for HLYPADFRFDKPKKSRSPQSAEAP it is 2.56. Under HLYPADFRFDKPKKSRSPVSAEAP stands 2.87; under HLYPADFRFDKPKKSRSPFSAEAP, 2.05; under HLYPADFRFDKPKKSRSPSSAEAP, 3.44.

For the variant HLYPADFRFDKPKISRSPASAEAP, the protein stability index was found to be 2.67. The figure for HLYPADFRFDKPKNSRSPASAEAP is 3.04; for HLYPADFRFDKPKASRSPASAEAP it is 3.3; for HLYPADFRFDKPKCSRSPASAEAP it is 2.77.

Regarding HLYPADFRFDKPKQSRSPASAEAP, the protein stability index came to 2.39. For HLYPADFRFDKPKTSRSPASAEAP, the protein stability index was 2.8. For HLYPADFRFDKPKYSRSPASAEAP, the protein stability index is 2.62. Consider HLYPADFRFDKPKPSRSPASAEAP, for which the protein stability index stood at 2.63.

As to HLYPADFRFDKPKDSRSPASAEAP, the protein stability index was determined as 3.29. With HLYPADFRFDKPKRSRSPASAEAP, the protein stability index is 2.01. The figure for HLYPADFRFDKPKFSRSPASAEAP is 2.26; for HLYPADFRFDKPKLSRSPASAEAP it is 3.24. With HLYPADFRFDKPKHSRSPASAEAP, the protein stability index came to 2.37. HLYPADFRFDKPKMSRSPASAEAP: the protein stability index is 3.17.

HLYPADFRFDKPKESRSPASAEAP: the protein stability index is 3.23. As to HLYPADFRFDKPKSSRSPASAEAP, the protein stability index amounted to 3.08. As for HLYPADFRFDKPKGSRSPASAEAP, the protein stability index worked out at 3.22. For HLYPADFRFDKPKVSRSPASAEAP, the protein stability index worked out at 2.33. In the case of HLYPADFRFDKPKWSRSPASAEAP, the protein stability index is 2.56. As for HLYPADFRFDKPKKSRSPANAEAP, the protein stability index is 3.36.

On to HLYPADFRFDKPKKSRSPALAEAP, for which the protein stability index was determined as 2.51. Under HLYPADFRFDKPKKSRSPAQAEAP stands 2.42; under HLYPADFRFDKPKKSRSPAWAEAP, 1.8.

In the case of HLYPADFRFDKPKKSRSPARAEAP, the protein stability index worked out at 2.97.
